Assay [1] concerns the target human PRLR expressed on cells (human) (UniProt P16471). In words: cell-based or functional assay.
The target in assay [2] is murine PRLR expressed on cells (mouse) (UniProt Q08501). Briefly: cell-based or functional assay.
Assay [3] deals with T1, rhesus monkey PRLR expressed on cells (rhesus monkey, UniProt F7HIU9 25-619).
T1 sequence: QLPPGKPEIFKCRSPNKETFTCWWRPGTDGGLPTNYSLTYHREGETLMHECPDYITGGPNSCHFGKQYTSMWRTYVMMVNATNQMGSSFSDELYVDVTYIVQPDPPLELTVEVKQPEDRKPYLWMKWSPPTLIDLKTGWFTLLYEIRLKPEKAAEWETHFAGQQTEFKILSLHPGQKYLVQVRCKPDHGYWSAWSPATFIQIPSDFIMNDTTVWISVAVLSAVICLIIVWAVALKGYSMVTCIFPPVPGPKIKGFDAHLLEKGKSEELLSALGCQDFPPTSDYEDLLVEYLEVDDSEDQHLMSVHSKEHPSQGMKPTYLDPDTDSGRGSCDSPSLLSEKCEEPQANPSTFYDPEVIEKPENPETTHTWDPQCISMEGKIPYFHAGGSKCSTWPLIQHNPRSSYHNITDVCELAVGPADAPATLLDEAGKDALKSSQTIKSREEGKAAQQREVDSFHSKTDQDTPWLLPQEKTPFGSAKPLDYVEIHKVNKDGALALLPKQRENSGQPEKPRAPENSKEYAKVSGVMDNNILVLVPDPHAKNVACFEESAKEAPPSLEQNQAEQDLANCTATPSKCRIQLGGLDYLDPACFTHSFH
Briefly: cell-based or functional assay.

The target in assay [4] is human PRLR expressed on cells (human) (UniProt P16471). In words: flow cytometry on BaF3-human PRLR cells, IgG1 format.
The target is the same in assay [5]. In words: flow cytometry on HEK293-human PRLR cells, IgG1 format.
Assay [6] deals with T1, rhesus monkey PRLR expressed on cells. Briefly: flow cytometry on BaF3-rhesus PRLR cells, IgG1 format.
In assay [7] the target is human PRLR expressed on cells (human) (UniProt P16471). Briefly: flow cytometry on human T47D breast cancer cells (natural PRLR), IgG1 format.
Assay [8] has as its target T2, extracellular domain of human PRLR (soluble, monomeric) (human, UniProt P16471 25-234).
T2 construct: also called Human ECD PRLR; ECD-PRLR
T2 sequence: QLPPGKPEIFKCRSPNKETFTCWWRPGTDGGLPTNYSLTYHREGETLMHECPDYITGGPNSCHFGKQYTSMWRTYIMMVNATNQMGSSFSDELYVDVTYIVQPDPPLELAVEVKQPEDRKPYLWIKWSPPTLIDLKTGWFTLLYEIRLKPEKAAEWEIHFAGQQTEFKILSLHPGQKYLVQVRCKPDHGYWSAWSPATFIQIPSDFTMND
Briefly: SPR (Biacore T100), antibody captured via anti-human IgG Fc, monovalent ECD as analyte, Example 13.
Description: (§1) Antibodies were immobilized onto a CM5 sensor chip through an indirect capturing reagent, anti-human IgG Fc. […] Approximately 5000 RU monoclonal mouse anti-human IgG (Fc) antibody were immobilized per cell. Each test antibody was injected at a concentration of 5 μg/ml at 10 μl/min for 10 sec to reach a capturing level of approximately 200 to 600 RU. […] Sensograms were generated after in-line reference cell correction followed by buffer sample subtraction. The dissociation equilibrium constant (KD) was calculated based on the ratio of association (kon) and dissociation rated (koff=kd) constants, obtained by fitting sensograms with a first order 1:1 binding model using BiaEvaluation Software (see Table 7).

In assay [9] the target is T3, extracellular domain of rhesus and cynomolgus monkey PRLR (Fc-His removed by Factor Xa digestion) (rhesus and cynomolgus monkey, UniProt P16471 25-234 (human entry)).
T3 construct: the fusion part was removed by Factor Xa before SPR; also called Rhesus/Cynomolgus PRLR; Rhesus and cynomolgus monkey ECD PRLR
T3 chain: T2 sequence with I76V, A110T, I125M, I158T, T207I
The assay is described as above.
Description: as §1

In assay [10] the target is T4, extracellular domain of murine PRLR (soluble, monomeric) (mouse, UniProt Q08501 20-229).
T4 construct: Expressed in HEK293 cells; also called Murine ECD PRLR; Mouse PRLR
T4 sequence: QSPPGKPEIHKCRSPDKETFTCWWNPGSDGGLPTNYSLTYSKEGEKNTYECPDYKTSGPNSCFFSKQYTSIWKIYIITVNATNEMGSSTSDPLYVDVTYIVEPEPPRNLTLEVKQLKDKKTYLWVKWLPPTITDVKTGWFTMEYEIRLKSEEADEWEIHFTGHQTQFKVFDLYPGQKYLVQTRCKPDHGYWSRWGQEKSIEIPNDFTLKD
The description is as above.
Description: as §1

In assay [11] the target is T2, extracellular domain of human PRLR …. Briefly: SPR: ECD-PRLR captured by immobilized Mat3 or HE06642, human PRL passed over.
For assay [12], the target named is human PRLR expressed on cells (human) (UniProt P16471). In words: cell-based or functional assay. This is another data set of the same source.
Assay [13] deals with murine PRLR expressed on cells (mouse) (UniProt Q08501). Briefly: cell-based or functional assay. The source holds these as a separate data set.
Assay [14] has the same target. Briefly: flow cytometry on BaF3-mouse PRLR cells, IgG1 format.
Assay [15] has the same target. Briefly: flow cytometry on HEK293-murine PRLR cells, IgG1 format.
Assay [16] concerns the target T2, extracellular domain of human PRLR …. In words: SPR (Biacore T100), antibody captured via anti-human IgG Fc, monovalent ECD as analyte, Example 10.
Description: (§2) Antibodies were immobilized onto a CM5 sensor chip through an indirect capturing reagent, anti-human IgG Fc. […] Approximately 5000 RU monoclonal mouse anti-human IgG (Fc) antibody were immobilized per cell. […] Sensograms were generated after in-line reference cell correction followed by buffer sample subtraction. The dissociation equilibrium constant (KD) was calculated based on the ratio of association (kon) and dissociation rated (koff=kd) constants, obtained by fitting sensograms with a first order 1:1 binding model using BiaEvaluation Software.
Assay [17] addresses T3, extracellular domain of rhesus and …. The assay is described as above.
Description: as §2
The target in assay [18] is T4, extracellular domain of murine PRLR …. The description is as above.
Description: as §2
Assay [19] addresses human PRLR expressed on cells (human) (UniProt P16471). In words: flow cytometry on HEK293 cells expressing human PRLR, Example 9.
Assay [20] has as its target T1, rhesus monkey PRLR expressed on cells. In words: flow cytometry on Ba/F cells expressing rhesus monkey PRLR, Example 9.
Description: The cells were harvested, centrifuged and resuspended at approximately 2×10⁶ cells/ml in 1×PBS containing 3% FBS and 0.05% sodium azide (FACS buffer). […] For secondary antibody and autofluorescence controls, 50 μl FACS buffer was added to appropriate wells. 50 μl of cell suspension was added to each sample well. Samples were incubated at 4° C. for one hour, washed twice with cold FRCS buffer and resuspended in FACS buffer containing PE-conjugated goat anti-human IgG at a 1:100 dilution. Following a 30 min incubation at 4° C., cells were washed twice with cold FACS buffer, resuspended in FACS buffer containing 1 mg/ml propidium iodide (Invitrogen, San Diego, Calif.) and analyzed by flow cytometry.

Numbering of substitutions follows the chain as printed. Read-outs that look alike come from different tables or passages of the source. Some results are limits rather than exact numbers.

B1: antibody HE06642 as IgG1 molecule (antibody, V domains shown)
VH: EVQLVESGGGLVQPGGSLRLSCAVSGFTFSSYGMSWVRQAPGKGLEWVATVSSGGTYTYYPDSVKGRFTISRDNSKNTLYLQMNSLRAEDTAVYYCARHRGNYYATYYYAMDYWGQGTLVTVSS
VL: DIVLTQSPDSLAVSLGERATINCKASKSVSTSGYTYMHWYQQKPGQPPKLLIYLASNRESGVPDRFSGSGSGTDFTLTISPVQAEDVATYYCQHSGELPPSFGQGTKLEIKR
Molecule B1 registered an IC50, inhibition of LHRE luciferase reporter gene activity in HEK293 cells stably transfected with human PRLR in assay [1] of 4.6 nM. In assay [1], this molecule returned an IC50, inhibition of prolactin-induced proliferation of BaF3 cells stably transfected with human prolactin receptor of 4.2 nM. In assay [2], this molecule gave an IC50, inhibition of LHRE luciferase reporter gene activity in HEK293 cells stably transfected with murine PRLR greater than 1330 nM. In addition, the “IC50, inhibition of prolactin-induced proliferation of BaF3 cells stably transfected with the rhesus prolactin receptor” value in assay [3] was found to be 206 nM. In addition, the EC50 in [4] amounted to 0.2 nM; in assay [5] it was 1.6 nM; in assay [6], 3.2 nM; in assay [7], 0.8 nM.

B2: antibody HE06642 (isotype not stated) (antibody, V domains shown)
VH: B1 VH
VL: B1 VL
notes: Kappa light chain; also called he06.642-2 of WO 2008/022295
For the molecule B2, the values for the Kd in assay [8], in assay [9] and in [10] were 0.8 nM, 17 nM and 15 nM, respectively. The koff amounted to 0.000533 s⁻¹ in assay [8], 0.00579 s⁻¹ in assay [9] and 0.0091 s⁻¹ in assay [10].

B3: human prolactin (ligand, UniProt P01236 29-227, looked up)
chain: LPICPGGAARCQVTLRDLFDRAVVLSHYIHNLSSEMFSEFDKRYTHGRGFITKAINSCHTSSLATPEDKEQAQQMNQKDFLSLIVSILRSWNEPLYHLVTEVRGMQEAPEAILSKAVEIEEQTKRLLEGMELIVSQVHPETKENEIYPVWSGLPSLQMADEESRLSAYYNLLHCLRRDSHKIDNYLKLLKCRIIHNNNC
notes: also called PRL; Human PRL
As to B3, in [11], the binding result was “binds”.

B4: antibody Mat3 in IgG1 format (antibody, V domains shown)
VH: EVQLLESGGGLVQPGGSLRLSCAASGFTFSSYWMHWVRQAPGKGLEWVSDIARLSSYTNYADSVKGRFTISRDNSKNTLYLQMNSLRAEDTAVYYCARGLDARRMDYWGQGTLVTVSS
VL: QSVLTQPPSASGTPGQRVTISCTGSSSNIGAGYVVHWYQQLPGTAPKLLIYRNNQRPSGVPDRFSGSKSGTSASLAISGLRSEDEADYYCAAWDDSLNGWLFGGGTKLTVLG
notes: also called Mat3 IgG1
For B4, the % inhibition of prolactin-induced proliferation at 1 µg/ml (=6.7 nM) in [12] came to 100%. In assay [12], the IC50, inhibition of LHRE luciferase reporter gene activity in HEK293 cells stably transfected with human PRLR was 0.5 nM. Further, in assay [12], the IC50, inhibition of prolactin-induced proliferation of BaF3 cells stably transfected with human prolactin receptor was 0.7 nM. Besides, the IC50, inhibition of LHRE luciferase reporter gene activity in HEK293 cells stably transfected with murine PRLR in [13] stood at 1.3 nM. The same molecule gave an IC50, inhibition of prolactin-induced proliferation of BaF3 cells stably transfected with the murine prolactin receptor in assay [13] of 3 nM. For the same molecule, the “IC50, inhibition of prolactin-induced proliferation of BaF3 cells stably transfected with the rhesus prolactin receptor” value in [3] is 4.6 nM. Also, the EC50 in assay [4] was 0.1 nM; in assay [14], 0.2 nM; in assay [5], 0.8 nM; in [15] it was 0.1 nM; in assay [6], 1.2 nM; in assay [7] it was 0.4 nM.

B5: antibody Mat3 as human IgG molecule (isotype not stated) (antibody, V domains shown)
VH: B4 VH
VL: B4 VL
notes: Lambda light chain; also called neutralizing prolactin receptor antibody Mat3
In the case of B5, the Kd in assay [16] was found to be 0.9 nM; in assay [17], 7.1 nM; in assay [18] it was 0.4 nM; in assay [8] it was 1.3 nM; in assay [9] it was 9.6 nM; in assay [10] it was 0.4 nM. The off-rate constant (koff) in [16] stood at 0.00044 s⁻¹; in assay [17] it was 0.0011 s⁻¹; in assay [18], 0.00021 s⁻¹; in assay [8], 0.000414 s⁻¹; in assay [9], 0.00102 s⁻¹; in [10], 0.000164 s⁻¹.

B6: antibody Mat3 as human IgG2 molecule (antibody, V domains shown)
VH: B4 VH
VL: B4 VL
notes: also called IgG2 Mat3
Turning to B6, the EC50 is 0.53 nM in assay [19] and 2.94 nM in [20].
